The subject of one series is thrombus. Description: Ex vivo biodistribution in rat model of arterial thrombosis. The note with it: rat carotid crush thrombosis.
For series [1] the following is noted: rat, in vivo, iv.
The conditions of series [2]: rat, in vivo.

In the case of “FHCHypY(3-Cl)DLCHIL-PXD (disulfide) [FBP8]”, the “uptake at the target site (thrombus), persisted over 5h” value in the series with thrombus was 0.5–0.8 % ID/g. Moreover, the “elimination half-life of the intact probe in blood” value in series [1] turned out to be 13.8 ± 3.8 min. Further, in series [2], the “intact probe in blood at 4h post-injection” value is recorded as over 85%.
For the substance “FHCHypY(3-Cl)DLCHIL-PXD (disulfide) [FBP9]”, the “uptake at the target site (thrombus), persisted over 5h” value in the series on thrombus is listed as 0.5–0.8 % ID/g. Also, the “elimination half-life of the intact probe in blood” value in series [1] is 17.9 ± 5.8 min. In series [2], the “intact probe in blood at 4h post-injection” value is over 85%.

Source of the values: publication PMC4216633 (Journal of nuclear medicine : official publication, Society …, 2014).
